Numbering of substitutions follows the chain as printed.
T1: C10orf54 (antigen of the KD values in Table 42) (human, UniProt Q9H7M9 33-311, limits assumed)
T1 sequence: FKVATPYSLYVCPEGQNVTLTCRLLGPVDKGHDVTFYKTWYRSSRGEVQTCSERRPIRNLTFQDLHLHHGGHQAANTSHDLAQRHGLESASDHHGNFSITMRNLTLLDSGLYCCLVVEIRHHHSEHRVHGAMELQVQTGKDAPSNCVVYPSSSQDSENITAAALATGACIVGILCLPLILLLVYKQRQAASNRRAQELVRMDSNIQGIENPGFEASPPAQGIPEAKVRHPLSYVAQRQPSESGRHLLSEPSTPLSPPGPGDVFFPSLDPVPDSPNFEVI

T2: chimeric C10orf54: first half of IgV mouse and remainder (including loop) human (construct CC8) (human/mouse chimera, UniProt Q9H7M9 33-311)
T2 construct: also called C10orf54 Construct 8; mmabChsC10
T2 chain: T1 sequence with A4T, V18A, L24I, D29S, F36I, R42L, T50M

T3: chimeric C10orf54: human with mouse loop (construct CC9) (human/mouse chimera, UniProt Q9H7M9 33-311)
T3 construct: also called C10orf54 Construct 9; hsC10mmLOOP
T3 chain: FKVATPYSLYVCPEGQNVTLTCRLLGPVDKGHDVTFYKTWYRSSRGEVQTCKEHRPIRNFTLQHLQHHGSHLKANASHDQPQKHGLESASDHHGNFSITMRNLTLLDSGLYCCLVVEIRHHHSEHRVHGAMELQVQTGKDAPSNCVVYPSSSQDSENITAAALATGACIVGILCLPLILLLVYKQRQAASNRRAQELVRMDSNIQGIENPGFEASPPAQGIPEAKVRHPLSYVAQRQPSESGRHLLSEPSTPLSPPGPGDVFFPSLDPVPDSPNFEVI

T4: full length cynomolgus monkey C10orf54 (construct CC4) (cynomolgus monkey, UniProt Q9H7M9 33-311 (human entry))
T4 construct: also called C10orf54 Construct 4
T4 chain: T1 sequence with P6L, L24V, L25F, N145S, V148A, D155E, I205T, P217S, P223L, S251G

T5: chimeric C10orf54: human IgV with mouse STALK (construct CC5) (human/mouse chimera)
T5 construct: also called C10orf54 Construct 5; hsIGVmmSTALK
T5 chain: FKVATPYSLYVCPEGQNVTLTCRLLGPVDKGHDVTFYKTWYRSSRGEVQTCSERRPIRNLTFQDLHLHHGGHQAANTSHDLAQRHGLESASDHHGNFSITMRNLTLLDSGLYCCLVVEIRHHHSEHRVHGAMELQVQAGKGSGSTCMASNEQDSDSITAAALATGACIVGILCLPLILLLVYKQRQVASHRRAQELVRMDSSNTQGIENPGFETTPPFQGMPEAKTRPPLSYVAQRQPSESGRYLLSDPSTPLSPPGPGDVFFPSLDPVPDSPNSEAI

T6: chimeric C10orf54: mouse with human loop (construct CC10) (human/mouse chimera, UniProt Q9D659 33-308 (mouse entry))
T6 construct: also called C10orf54 Construct 10; mmC10hsLOOP
T6 chain: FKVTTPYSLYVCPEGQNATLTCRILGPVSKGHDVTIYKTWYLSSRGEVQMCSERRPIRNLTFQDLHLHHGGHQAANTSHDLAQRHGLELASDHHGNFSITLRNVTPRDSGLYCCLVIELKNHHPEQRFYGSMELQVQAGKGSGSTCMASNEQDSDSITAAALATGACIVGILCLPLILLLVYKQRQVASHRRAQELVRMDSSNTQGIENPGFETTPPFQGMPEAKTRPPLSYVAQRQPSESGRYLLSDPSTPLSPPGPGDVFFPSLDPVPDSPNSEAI

T7: chimeric C10orf54: first half of IgV human and remainder (including loop) mouse (construct CC7) (human/mouse chimera, UniProt Q9D659 33-308 (mouse entry))
T7 construct: also called C10orf54 Construct 7; hsABCmmC10
T7 chain: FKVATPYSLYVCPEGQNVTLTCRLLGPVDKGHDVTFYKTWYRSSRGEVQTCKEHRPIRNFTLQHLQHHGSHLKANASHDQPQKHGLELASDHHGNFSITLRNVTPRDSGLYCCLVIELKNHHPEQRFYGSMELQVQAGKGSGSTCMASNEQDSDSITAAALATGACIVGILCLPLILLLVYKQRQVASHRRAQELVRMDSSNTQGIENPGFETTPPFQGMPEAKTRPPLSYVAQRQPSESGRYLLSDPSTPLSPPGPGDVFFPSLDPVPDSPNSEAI

B1: murine monoclonal antibody 353A (antibody, V domains shown)
VH: EVKLLESGGGLVQPGGSLKLSCAASGFDFSRYWMNWVRQAPGKGLEWIGEINPDSSTINYTPSLKDKFIISRDNAKNTLYLQMSKVRYEDTALYYCARPGEIYYYGSYWFAYWGQGTLVTVSA
VL: DIVLTQSPASLAVSLGQRATISCRASESVEYYGTSLMQWFQQKPGQPPKLLIYAASNVESRVPARFSGSGSGTDFSLNIHPVEEDDIAMYFCQQSRKDPWTFGGGTKLEIK
notes: Mouse hybridoma antibody
B2: murine monoclonal antibody 230A (antibody, V domains shown)
VH: EVQLQQSGPELEKPGASVKISCKASGYSFTGSNMNWVKQNNGKSLEWIGNIDPYYGYTTYNQKFKGKATLTVDKSSSTAYMQLKSLTSEDSAVYYCARDYDYALGYFDVWGAGTTVTVSS
VL: DVVMTQTPLSLPVSLGDQASISCRSSQSLVHSNGNTYLHWYLQKPGQSPKLLIYKVSNRFSGVPDRFSGSGSGTDFTLKISRVEAEDLGVYFCSQSTHVPYTFGGGTKLEIK
notes: Mouse hybridoma antibody
B3: murine monoclonal antibody 321D (antibody, V domains shown)
VH: QVQLQQSGAELMKPGAAVKISCKATGYTFSSHWIEWVKQRPGHGLEWIGEILPGSGSTDYNEKFKGKATFTADTSSNTAYMQLSSLTSEDSAVYYCARWLLYYYAMDYWGQGTSVTVSS
VL: B2 VL with V3L, L29I, H39E, S81T, F92Y, S94F, S96G, T97S, Y101F
notes: Mouse hybridoma antibody
B4: murine monoclonal antibody 33A (antibody, V domains shown)
VH: B3 VH with A17S, H32Y, D59S, S85G, D107V
VL: B2 VL with V3L, L29I, H39E, F92Y, S94F, S96G, T97S
notes: Mouse hybridoma antibody
B5: murine monoclonal antibody 175A (antibody, V domains shown)
VH: B3 VH with A17S, S31T, D59S
VL: B2 VL with V3L, L29I, H39E, V56L, F92Y, S94F, S96G, T97S, V99F
notes: Mouse hybridoma antibody
B6: murine monoclonal antibody 141A (antibody, V domains shown)
VH: QVQLQQSGAELMKPGASVKISCKATGYTFSRYWIEWVKQRPGHGLEWIGEILPGSGSTNYNEKFKGKATFTADTSSNTAYMQLSSLTSEDSAVYYCAGEEVYDGYPWFGYWGQGTLVTVSA
VL: QIVLSQSPAILSASPGEKVTMTCRASSSLSYMHWYQQKPGSSPKPWIYATSNLASGVPARFSGSGSGTSYSLTISRVEAEDAATYYCQQWSSNPYTFGGGTKLEIK
notes: Mouse hybridoma antibody
B7: murine monoclonal antibody 305A (antibody, V domains shown)
VH: DVQLQESGPGLVKPSQSLSLTCSVTGYSITSGYYWNWIRQFPGNKLEWMGYISYDGSNNYNPSLKNRISITRDTSKNQFFLKLNSVTTEDTATYYCARRHDYLSFAYWGQGTLVIVSA
VL: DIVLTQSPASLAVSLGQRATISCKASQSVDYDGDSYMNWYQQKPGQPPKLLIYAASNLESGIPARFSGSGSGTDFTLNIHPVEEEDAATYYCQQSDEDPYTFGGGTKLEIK
notes: Mouse hybridoma antibody
B8: murine monoclonal antibody 26A (antibody, V domains shown)
VH: EVQLQQSGPELVKPGASMKISCKASGFSFTGYTMNWVKQSHVKNLEWIGLISPYNGGTSYNQKFKGKATLTVDKSSSTAYMELLSLTSEDSAVYYCARRAYGYAMDYWGQGTSVTVSS
VL: QIVLTQSPAIMSASPGEKVTMTCSASSSVSYMYWYQQKPGSSPRLLIYDTSNLASGVPLRFSGSGSGTSYSLTISRMEAEDAATYYCQQWSSYPFTFGSGTKLEIK
notes: Mouse hybridoma antibody

Experiments:
[1] = molecular target: T1, C10orf54 (antigen of the KD values in …); assay: method and antigen form not stated
[2] = molecular target: T2, chimeric C10orf54: first half of IgV …; assay: flow cytometry, transfected 293t cells, 2 ug/ml; stain = MFI >=20-fold over isotype control
Method: (§1) To investigate epitope diversity of the anti-human C10orf54 antibodies, 293t cells were transfected with 1 of 10 different C10orf54 expression constructs that co-express a fluorescent marker. Two days after transfection, cells were stripped from the tissue culture plate, stained with 2 μg/ml anti-human C10orf54 antibody , washed, stained with anti-mouse IgG-Fc Alexa Fluor 647 polyclonal antibody, washed, and stained with the viability dye 4′,6-Diamidino-2-Phenylindole, Dihydrochloride. Upon acquisition of 10,000 live events on a flow cytometer, live cells marked with the fluorescent marker were analyzed for the degree of staining by the anti-human C10orf54 antibody. When the median fluorescence intensity fold-change relative to an isotype control antibody was at least 20-fold, the antibody was considered to stain the C10orf54 expression construct in question.

[3] = molecular target: T3, chimeric C10orf54: human with mouse …; assay: as above
Method: as §1

[4] = molecular target: T4, full length cynomolgus monkey C10orf54 …; assay: as above
Method: as §1

[5] = molecular target: T5, chimeric C10orf54: human IgV with mouse …; assay: as above
Method: as §1

[6] = molecular target: T6, chimeric C10orf54: mouse with human …; assay: as above
Method: as §1

[7] = molecular target: T1, C10orf54 (antigen of the KD values in …); assay: method and antigen form not stated; footnote: low affinity antibody
[8] = molecular target: T7, chimeric C10orf54: first half of IgV …; assay: flow cytometry, transfected 293t cells, 2 ug/ml; stain = MFI >=20-fold over isotype control
Method: as §1

Binder | Kd [1] | binding result [2] | binding result [3] | binding result [4] | binding result [5] | binding result [6] | Kd [7] | binding result [8]
B1 | 2.9 nM | binds | binds | binds | binds |  |  | 
B2 | 1.05 nM | binds |  | binds | binds | binds |  | 
B3 | 7.26 nM | binds |  | binds | binds | binds |  | 
B4 | 6.61 nM | binds |  | binds | binds | binds |  | 
B5 |  |  |  | binds | binds |  | 108 nM | 
B6 | 1.27 nM | binds | binds | binds | binds |  |  | 
B7 |  |  | binds | binds | binds |  | 20.8 nM | binds
B8 | 0.677 nM | binds |  | binds | binds | binds |  | 

— patent US20190177415A1 (PIERRE FABRE MEDICAMENT, published 2019)
